According to PMC6610666, “E2F4 regulates transcriptional activation in mouse embryonic stem cells independently of the RB family” (Nature Communications, 2019):

Target: mouse CBP TAZ1 (residues 340-439) (mouse, UniProt P45481 340-439)
Assay: ITC; MicroCal VP-ITC; E2F4 TAD (300 uM) titrated into TAZ1 (30 uM) at 25 C; 25 mM HEPES pH 7.0, 200 mM NaCl, 5% glycerol v/v; E2F4 concentration adjusted such that N was close to 1
Conditions: both partners purified

Chain of mouse CBP TAZ1 (residues 340-439) (P45481 340-439): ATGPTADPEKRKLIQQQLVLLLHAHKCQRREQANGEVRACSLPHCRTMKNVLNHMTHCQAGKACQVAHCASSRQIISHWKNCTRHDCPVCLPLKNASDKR

B1: human E2F4 transactivation domain (residues 390-407) (domain or fragment, UniProt Q16254 390-407, looked up)
chain: HDYIYNLDESEGVCDLFD
notes: also called E2F4 TAD; E2F4 peptide; source: E. coli, purified (GST fusion, Superdex-75)
B1: binds.
